# Test results taken from patent US20210071137A1, “PRODUCTION METHOD FOR CELL MASS INCLUDING NEURAL CELLS/TISSUE AND NON-NEURAL EPITHELIAL TISSUE, AND CELL MASS FROM SAME” (SUMITOMO CHEMICAL COMPANY, LIMITED, priority 2017, published 2021).
# Where a name gives a salt, the structure may show the parent alone.
# B1: BMP4: human recombinant BMP4 (manufactured by R & D Systems), BMP signal transduction pathway activating substance (protein, UniProt P12644 293-408, looked up)
# Bone morphogenetic protein 4: SPKHHSQRARKKNKNCRRHSLYVDFSDVGWNDWIVAPPGYQAFYCHGDCPFPLADHLNSTNHAIVQTLVNSVNSSIPKACCVPTELSAISMLYLDEYDKVVLKNYQEMVVEGCGCR
# Assays:
# Assay type in all cases: cell-based
# [1] = system: cell mass containing neural tissue and nonneural epithelial tissue prepared from human ES cell line KhES-1; test: Compound stimulability test by fluorescein staining and extraction (Example 11); details: test compound 2.5% in PBS, 24 hr, 37° C.; 0.02% fluorescein 30 sec; extraction 10 min; excitation 485 nm, emission 535 nm; Category 1 compound versus Category 2 compound
# Experimental: Cell masses were prepared by the method described in Example 3 from human ES cell line KhES-1. Cell masses were collected using micropipette on day 28 from the start of suspension culturing, placed in a dish for suspension culture (manufactured by SUMITOMO BAKELITE CO., LTD.), and further cultured in suspension under the conditions of 37° C., 5% CO2 for 9 days. As the serum-free medium (gfCDM+KSR) therefor, a serum-free medium which is a 1:1 mixture of F-12+Glutamax medium (manufactured by Thermo Fisher Scientific) and […] medium (manufactured by Thermo Fisher Scientific) supplemented with 10% Knockout Serum Replacement (manufactured by Thermo Fisher Scientific), 450 μM 1-mono thioglycerol (manufactured by Wako Pure Chemical Industries, Ltd.), 1×Chemically defined lipid concentrate (manufactured by Thermo Fisher Scientific), 50 unit/ml penicillin-50 μg/ml streptomycin (manufactured by Nacalai Tesque) was used.
# The cell masses on day 37 of suspension culturing and prepared by the above-mentioned method were added to 1.5 ml microtubes at 3 masses per tube, and washed twice with PBS. […] The concentration of fluorescein in the extract prepared by the above-mentioned method was measured using a fluorescent plate reader (2104 EnVision multilabel counter, manufactured by Perkin Elmer) under the conditions of excitation 485 nm and emission 535 nm.
# [2] = system: Human ES cells (KhES-1 strain); test: Consideration of concentration of BMP4 in production of cell mass (Example 6)
# Experimental: Human ES cells (KhES-1 strain, obtained from Kyoto University) were cultured under feeder-free conditions according to the method described in Scientific Reports, 4, 3594 (2014). As the feeder-free medium, StemFit medium was used and, as the feeder-free scaffold, Laminin 511-E8 was used. Specific maintenance culturing operation was performed in the same manner as in Comparative Example 1.
# The thus-prepared subconfluent human ES cells were washed with PBS, subjected to an enzyme treatment using Accumax, a serum-free medium for differentiation induction was added, and the cells were scraped from the surface of the culture dish by using a cell scraper and dispersed into single cells by pipetting. Thereafter, the aforementioned human ES cells dispersed into single cells were suspended in 100 μl of a serum-free medium at 1×10^4 cells per well of a non-cell-adhesive 96-well culture plate (PrimeSurface 96V-bottom plate, manufactured by SUMITOMO BAKELITE), and cultured in suspension under the conditions of 37° C., 5% CO2. […]
# [3] = system: Human ES cells (KhES-1 strain); test: Consideration of timing of addition of BMP4 in production of cell mass (Example 4)
# Experimental: Human ES cells (KhES-1 strain, obtained from Kyoto University) were cultured under feeder-free conditions according to the method described in Scientific Reports, 4, 3594 (2014). As the feeder-free medium, StemFit medium was used and, as the feeder-free scaffold, […] was used.
# Specific maintenance culturing operation was performed in the same manner as in Comparative Example 1. Thereafter, suspension culturing in a 96-well plate under conditions similar to those in Comparative Example 1 was started. The condition without addition of a BMP signal transduction pathway activating substance during the suspension culturing period was taken as the control (−BMP4 condition, FIG. 5A). In the condition with the addition of a BMP signal transduction pathway activating substance simultaneously with the start of the suspension culturing (Day0+BMP4 condition, FIG. 5B), human recombinant BMP4 (manufactured by R & D Systems, 1.5 nM, start of step 2) was added. Thereafter, in the condition with the addition of a BMP signal transduction pathway activating substance on days 1, 2, 3 from the start of suspension culturing (Day1-3+BMP4 condition, FIGS. 5C-E), a serum-free medium not containing Y27632 and containing IWP-2, SB-431542, BMP4 was added at 100 μl per well. BMP4 was added at 3 nM to the medium such that the final concentration thereof in the well was 1.5 nM. Only in the Day0+BMP4 condition, a serum-free medium not containing Y27632 and containing IWP-2, SB-431542, BMP4 was added at 100 μl per well on day 3 from the start of suspension culturing. In the condition with the addition of a BMP signal transduction pathway activating substance on day 6 from the start of differentiation induction (Day6+BMP4 condition, FIG. 5F), a serum-free medium not containing Y27632 or BMP4 and containing IWP-2 and SB-431542 was added at 100 μl per well on day 3 from the start of differentiation induction, and a half amount of the medium was changed on day 6 with a serum-free medium not containing Y27632 and containing IWP-2, SB-431542, BMP4. Under other conditions, a half amount of the medium was changed with a serum-free medium not containing Y27632 or BMP and containing IWP-2 and SB-431542 on day 6 from the start of suspension culturing. On day 10 from the start of suspension culturing, bright field observation was performed using an inverted microscope (manufactured by KEYENCE CORPORATION, BIOREVO) (FIGS. 5A-B).
# [4] = BMP4 1.5 nM, observation day 10
Molecule,elution amount after incorporation of fluorescein [1],BMP4 concentration at which nonneural epithelial tissue can be formed on the surface of cell mass ([2]; BMP4 added on day 2 from the start of suspension culturing),"formation of cell mass having nonneural epithelial tissue on the surface ([2]; BMP4 at any concentration from 0.1 nM to 5 nM added on day 2, IWP-2 2 μM, SB-431542 1 μM, observation day 10)",time of addition from the start of suspension culturing effective for formation of the cell mass ([3]; BMP4 1.5 nM) [h],"formation of cell masses with two-layer structure ([3]; BMP4 1.5 nM added on day 1 and day 2 (Day1, 2+BMP4), observation day 10)","efficiency of formation of nonneural epithelium-like tissue on the outside ([3]; BMP4 1.5 nM added on day 3 and day 6, observation day 10)","formation of embryoid body ([3]; BMP4 1.5 nM added simultaneously with start of differentiation induction (Day0+BMP4), observation day 10)","diameter of embryoid body, BMP4 on day 2 relative to BMP4 on day 1 [3, 4]","volume of embryoid body, BMP4 on day 2 relative to BMP4 on day 1 [3, 4]"
O=Cc1ccc(C(=O)O)cc1 [4-formylbenzoic acid],significant difference,–,–,–,–,–,–,–,–
CC(CN1c2ccccc2Sc2ccccc21)N(C)C (stereo not shown) [promethazine hydrochloride],significant difference,–,–,–,–,–,–,–,–
B1,–,not less than 0.1 nM,a cell mass having nonneural epithelial tissue on the surface was formed,≤ 72,cell masses containing neural tissue and nonneural epithelial tissue and having a two-layer structure in which a center part with a neuroepithelium-like structure is covered with a nonneural epithelium-like layer were formed,lower than that of the condition with the addition of BMP4 on day 2,markedly inhibited,about 1.3 times,about 2.2 times
